These results are taken from paper PMC6499398.

Where two headings read alike, the source gives them in different places.

Holding throughout (assay): EMSA
The target of data set [1] is T1, TDP43(WT) (UniProt Q13148 1-414).
Data set [2] has as its target T1, TDP43(WT). This is another data set of the same source.
The target of data set [3] is T1, TDP43(WT). The source holds these as a separate data set.

T1 sequence (Q13148 whole entry): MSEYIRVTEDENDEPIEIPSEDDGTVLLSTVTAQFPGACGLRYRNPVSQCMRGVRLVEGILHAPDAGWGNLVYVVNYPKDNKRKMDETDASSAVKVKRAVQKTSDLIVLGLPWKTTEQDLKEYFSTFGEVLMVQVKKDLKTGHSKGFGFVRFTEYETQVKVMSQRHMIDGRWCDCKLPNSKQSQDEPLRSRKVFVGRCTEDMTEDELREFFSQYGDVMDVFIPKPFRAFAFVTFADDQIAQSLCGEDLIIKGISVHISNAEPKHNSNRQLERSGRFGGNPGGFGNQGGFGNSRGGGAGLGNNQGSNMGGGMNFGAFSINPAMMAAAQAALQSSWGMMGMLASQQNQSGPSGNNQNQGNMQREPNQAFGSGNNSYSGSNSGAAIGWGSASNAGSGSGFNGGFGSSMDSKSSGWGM

B1: (TG)12 (ssDNA)
DNA: TGTGTGTGTGTGTGTGTGTGTGTG
In the data set with TDP43(WT) [1], B1 gave a dissociation constant Kd of 7.4 ± 0.34 nM.

B2: (AT)12 (ssDNA)
DNA: ATATATATATATATATATATATAT
B2: the binding result with TDP43(WT) [2] was “no binding”.

B3: (UG)12 (ssRNA)
RNA: UGUGUGUGUGUGUGUGUGUGUGUG
On to B3, for which the affinity with TDP43(WT) [3], expressed as Kd, was 0.35 ± 0.1 nM.

B4: (GC)12 (ssDNA)
DNA: GCGCGCGCGCGCGCGCGCGCGCGC
With B4, the binding result with TDP43(WT) [2] was “no binding”.

One may read the Kd as the free concentration of one partner at which half of the binding sites on the other are occupied at equilibrium, for simple one-to-one binding.
